{"source": "paper PMC12386978", "target": "K151Q/R mutants", "assay": "split reporter (BiFC, NanoBiT); split-luciferase complementation; HEK293T cells co-transfected with NLuc-mCRY1 (wild-type or mutant) and a CLuc fusion of the partner; bioluminescence read 24 h after transfection in DMEM with 100 uM D-luciferin", "data": [{"substance": "CLuc-BMAL1 (from UniProt Q9WTL8 1-632) (natural protein)", "values": [{"measurement": "binding rate, percent of the wild type (% of the wild type)", "value": "50 to 60"}]}]}
